± gives the uncertainty stated by the source.
Test: self-splicing fitness, log relative to wild type (ln ratio); higher = more splicing; Tetrahymena group I intron in knt gene, E. coli kanamycin selection, DiMSum; sequences stand for … in CUCUCU…GGAGGGAAAAGUUAUCAGGCAUGCACCUGGUAGCUAGUCUUUAAACCAAUAGAUUGCAUCGGUUUAAAAGGCAAGACCGUCAAAUUGCGGGAAAGGGGUCAACAGCCGUUCAGUACCAAGUCUCAGGGGAAACUUUGAGAUGGCCUUGCAAAGGGUAUGGUAAUAAGCUGACGGACAUGGUCCUAACCACGCAGCCAAGUCCUAAGUCAACAGAUCUUCUGUUGAUAUGGAUGCAGUUCACAGACUAAAUGUCGGUCGGGGAAGAUGUAUUCUUCUCAUAAGAUAUAGUCGGACCUCUCCUUAAUGGGAGCUAGCGGAUGAAGUGAUGCAACACUGGAGCCGCUGGGAACUAAUUUGUAUGCGAAAGUAUAUUGAUUAGUUUUGGAGUACUCGUGGUCG
In short: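 The eight P1ex-region nucleotides of an intron in the knt kanamycin-resistance gene on pET-22b(+) were all randomised and the library put into E. coli BL21(DE3). Six replicate transformations were grown overnight at 37°C or 30°C on LB agar with or without 25 μg/mL kanamycin, together with 100 μg/mL carbenicillin, 50 μM IPTG and 0.2% rhamnose. Colonies were pooled and amplicon-sequenced on an Illumina HiSeq 2500. Fitness from DiMSum is the error-weighted combination of wild-type-normalised replicate fold changes, kanamycin over none.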

Sequence	self-splicing fitness (ln) (30 °C)	self-splicing fitness (ln) (37 °C)
CCGUAGCAAUAUUACGGGUA	-2.75 ± 0.32	-2.67 ± 0.36
ACCAAGCAAUAUUACGGCAU	-0.931 ± 0.049	-0.0435 ± 0.066
CAGAAGCAAUAUUACGUCUG	-3.35 ± 0.16	-3.09 ± 0.21
CAAGAGCAAUAUUACGUAGA	-3.55 ± 0.17	-2.76 ± 0.24
CCGAAGCAAUAUUACGGUUC	-3.74 ± 0.26	-2.66 ± 0.2
AACCAGCAAUAUUACGCGUA	-0.386 ± 0.063	-0.313 ± 0.073
UUGCAGCAAUAUUACGAACA	-0.626 ± 0.17	-1.24 ± 0.15
UGACAGCAAUAUUACGGUCG	-3.56 ± 0.26	-1.58 ± 0.21
CAAGAGCAAUAUUACGCGCC	-3.44 ± 0.37	-1.74 ± 0.42
CCCAAGCAAUAUUACGCCUG	-3.12 ± 0.19	-2.88 ± 0.27
UCCGAGCAAUAUUACGGUUC	-3.78 ± 0.39	-3.02 ± 0.31
AGCGAGCAAUAUUACGGUUC	-2.18 ± 0.24	-2.32 ± 0.3
UCUUAGCAAUAUUACGAUUC	-2.05 ± 0.44	–
CUCAAGCAAUAUUACGCAAA	-3.82 ± 0.31	-2.47 ± 0.25
UUAAAGCAAUAUUACGCCAG	0.134 ± 0.17	-1.25 ± 0.21
CAACAGCAAUAUUACGGAUA	-3.38 ± 0.17	-2.14 ± 0.15
GAUUAGCAAUAUUACGCGCG	-1.03 ± 0.097	-0.745 ± 0.12
ACGAAGCAAUAUUACGCUUA	-1.81 ± 0.087	-0.374 ± 0.083
CAACAGCAAUAUUACGAAAG	-0.908 ± 0.053	0.316 ± 0.079
AUUGAGCAAUAUUACGACAC	-2.36 ± 0.19	-1.45 ± 0.22
UGCUAGCAAUAUUACGUGGC	-3.1 ± 0.32	-2.6 ± 0.35
UUCGAGCAAUAUUACGAAAG	-2.66 ± 0.36	–
CCUGAGCAAUAUUACGCUGC	-4.04 ± 0.37	-2.34 ± 0.22
GUUUAGCAAUAUUACGACUU	-0.551 ± 0.11	0.304 ± 0.14
UUCAAGCAAUAUUACGUACC	–	-1.69 ± 0.2
GCCAAGCAAUAUUACGCGGA	-1.1 ± 0.099	-0.277 ± 0.11

Sequence	self-splicing fitness (ln) (30 °C)	self-splicing fitness (ln) (37 °C)
CAGCAGCAAUAUUACGUGGG	-3.53 ± 0.14	-2.31 ± 0.11
GCCAAGCAAUAUUACGGCAU	-3.55 ± 0.21	-2.55 ± 0.19
ACAUAGCAAUAUUACGGGGG	-3.09 ± 0.14	-2.58 ± 0.2
GAAGAGCAAUAUUACGGGGA	-2.93 ± 0.43	-0.71 ± 0.31
AAUAAGCAAUAUUACGGUCG	-1.03 ± 0.098	-0.232 ± 0.12
GGGAAGCAAUAUUACGAGUG	-3.06 ± 0.12	-1.81 ± 0.11
UUGGAGCAAUAUUACGCUGA	-1.98 ± 0.17	-1.5 ± 0.16
GAGAAGCAAUAUUACGACAC	-0.317 ± 0.15	0.578 ± 0.18
UUCAAGCAAUAUUACGCGGA	-2.64 ± 0.16	-2.09 ± 0.15
UAAGAGCAAUAUUACGGUAG	–	-2.57 ± 0.35
UGCGAGCAAUAUUACGUAAA	-2.8 ± 0.1	-1.77 ± 0.18
UAGGAGCAAUAUUACGUUCU	-3.31 ± 0.36	-2.54 ± 0.27
UAUCAGCAAUAUUACGUGAG	0.239 ± 0.054	0.101 ± 0.084
UUAAAGCAAUAUUACGGUAA	-0.33 ± 0.076	0.503 ± 0.1
UGAGAGCAAUAUUACGGAUG	-3.61 ± 0.19	-3.56 ± 0.29
CCCAAGCAAUAUUACGUUAG	-4.82 ± 0.24	-3.02 ± 0.22
CAUUAGCAAUAUUACGCCGU	-2.04 ± 0.15	-1.84 ± 0.21
GAACAGCAAUAUUACGUUAA	-0.997 ± 0.068	-0.105 ± 0.08
CCUGAGCAAUAUUACGCUCA	-1.37 ± 0.28	-1.94 ± 0.38
UUCAAGCAAUAUUACGGGCC	–	-2.94 ± 0.48
UCUGAGCAAUAUUACGGCUC	-2.63 ± 0.22	-2.14 ± 0.24
GAUAAGCAAUAUUACGAACA	-1.02 ± 0.092	-0.468 ± 0.097
AUUAAGCAAUAUUACGGGAC	-3.35 ± 0.22	-0.882 ± 0.17
UUGAAGCAAUAUUACGGCCU	-0.822 ± 0.13	-0.147 ± 0.16
CUUGAGCAAUAUUACGGGAG	-3.95 ± 0.22	-3.25 ± 0.26
UUGAAGCAAUAUUACGCUUU	-3.5 ± 0.23	-2.56 ± 0.36

Sequence	self-splicing fitness (ln) (30 °C)	self-splicing fitness (ln) (37 °C)
ACACAGCAAUAUUACGCGAU	-3.11 ± 0.11	-2.02 ± 0.11
GACAAGCAAUAUUACGCCGG	-2.63 ± 0.32	-1.92 ± 0.28
GAUUAGCAAUAUUACGGAAU	-2.71 ± 0.15	-2.11 ± 0.17
CAAGAGCAAUAUUACGUCCG	-1.66 ± 0.087	-0.696 ± 0.13
GUCAAGCAAUAUUACGCGCU	-1.88 ± 0.092	-0.425 ± 0.087
UACUAGCAAUAUUACGCAUU	-3.73 ± 0.21	-1.81 ± 0.14
GUCCAGCAAUAUUACGGGUC	-1.73 ± 0.13	-1.7 ± 0.16
AGCCAGCAAUAUUACGUACC	-2.95 ± 0.25	-0.263 ± 0.13
GUGUAGCAAUAUUACGGCGA	-1.18 ± 0.089	-0.268 ± 0.098
UUUGAGCAAUAUUACGGGUC	–	-3.77 ± 0.46
GAAGAGCAAUAUUACGCGGC	-2.37 ± 0.27	-1.8 ± 0.33
GUACAGCAAUAUUACGCAAU	-2.58 ± 0.21	-1.87 ± 0.27
CGGGAGCAAUAUUACGUACA	-3.72 ± 0.35	–
GUGAAGCAAUAUUACGACAU	0.0507 ± 0.012	0.246 ± 0.032
GCGAAGCAAUAUUACGCCCC	-2.37 ± 0.46	–
GCCGAGCAAUAUUACGGGAU	-2.03 ± 0.11	-0.76 ± 0.13
UGACAGCAAUAUUACGUUGA	-1.99 ± 0.094	-1.9 ± 0.12
AAUAAGCAAUAUUACGGAUA	-2.35 ± 0.14	-1.68 ± 0.15
CUUGAGCAAUAUUACGGUAU	-3.17 ± 0.2	-2.65 ± 0.26
CACCAGCAAUAUUACGAUAG	-0.377 ± 0.057	0.0494 ± 0.064
ACCAAGCAAUAUUACGGACC	-0.368 ± 0.098	-0.214 ± 0.12
AGCUAGCAAUAUUACGCUAG	-3.02 ± 0.21	-2.23 ± 0.22
UAAAAGCAAUAUUACGCACU	-0.274 ± 0.056	0.0996 ± 0.068
AUGUAGCAAUAUUACGAUGG	-3.4 ± 0.25	-2.26 ± 0.26
CCUCAGCAAUAUUACGUUAC	-3.54 ± 0.19	-3.7 ± 0.36
UGCAAGCAAUAUUACGCGCC	-1.18 ± 0.098	-0.427 ± 0.11

Reference: the supplement of paper PMC7877785
